Assay results as given in US20110294195A1.

Target: CD81 on Huh7.5 cells (human) (UniProt P60033)
Test: cell-based or functional assay

UniProt P60033, sequence (P60033 whole entry): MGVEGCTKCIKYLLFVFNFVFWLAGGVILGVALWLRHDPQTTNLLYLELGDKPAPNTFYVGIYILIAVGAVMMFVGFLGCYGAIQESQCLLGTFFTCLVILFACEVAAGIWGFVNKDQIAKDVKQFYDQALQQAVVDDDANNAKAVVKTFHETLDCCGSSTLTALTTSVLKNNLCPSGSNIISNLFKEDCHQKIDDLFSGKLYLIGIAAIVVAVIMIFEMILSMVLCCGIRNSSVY

anti-CD81 (JS-81; BD Biosciences Pharmingen, Franklin Lakes, N.J.) (antibody)
% inhibition of infection of Huh7.5 cells (FFU) with genotype 2a recombinant J6/JFH1 at 0.02 µg/mL anti-CD81: < 50 % inhibition
% inhibition of infection of Huh7.5 cells (FFU) with genotype 2a recombinant J6/JFH1 at 2.5 µg/mL anti-CD81: > 90 % inhibition
% inhibition of infection of Huh7.5 cells (FFU) with genotype 7a recombinant QC69/JFH1 at 0.02 µg/mL anti-CD81: < 50 % inhibition
% inhibition of infection of Huh7.5 cells (FFU) with genotype 7a recombinant QC69/JFH1 at 2.5 µg/mL anti-CD81: > 90 % inhibition
